This is an account of results in patent publication US20200199241A1 (Chugai, published 2020).

In one assay the target is T1, mouse FcγRI (mouse, UniProt P26151 25-297).
T1 construct: bought; also called mFcgRI; mFcgR 1
T1 sequence (looked up): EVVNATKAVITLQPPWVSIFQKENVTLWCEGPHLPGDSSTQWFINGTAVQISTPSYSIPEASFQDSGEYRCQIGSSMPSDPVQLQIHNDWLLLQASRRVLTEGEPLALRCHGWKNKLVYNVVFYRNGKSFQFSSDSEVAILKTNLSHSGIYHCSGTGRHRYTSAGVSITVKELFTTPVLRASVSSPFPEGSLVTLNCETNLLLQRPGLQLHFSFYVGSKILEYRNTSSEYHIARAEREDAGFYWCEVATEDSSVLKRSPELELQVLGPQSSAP
Put plainly: SPR, antibody captured by Protein L, mouse FcγR as analyte, pH 7.4, 25 C. In general terms: SPR reads the build-up and loss of mass on a sensor chip optically.

Another assay has as its target T2, mouse FcγRIII (mouse, UniProt P08508 31-215).
T2 construct: bought; also called mFcgRIII; mFcgR III
T2 sequence (looked up): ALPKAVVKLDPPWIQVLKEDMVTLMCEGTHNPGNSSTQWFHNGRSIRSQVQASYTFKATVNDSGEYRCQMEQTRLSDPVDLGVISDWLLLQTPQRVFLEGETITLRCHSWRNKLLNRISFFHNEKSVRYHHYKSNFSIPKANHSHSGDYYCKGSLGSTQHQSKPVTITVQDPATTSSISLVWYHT
Described as above.

In the next assay the target is T3, mouse FcγRIIb (mouse, UniProt P08101 30-207, limits assumed).
T3 construct: bought; also called mFcgRIIb; mFcgR IIb
T3 sequence (looked up): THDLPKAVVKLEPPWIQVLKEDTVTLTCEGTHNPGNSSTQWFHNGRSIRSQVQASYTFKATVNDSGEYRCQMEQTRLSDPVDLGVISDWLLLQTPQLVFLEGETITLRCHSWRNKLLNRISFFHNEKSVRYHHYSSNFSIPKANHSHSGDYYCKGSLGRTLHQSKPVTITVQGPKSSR
The assay is described as above.

In another assay the target is T4, mouse FcγRIV (mouse, UniProt A0A0B4J1G0 21-203).
T4 construct: bought; also called mFcgRIV; mFcgR IV; the vendor's purification tag not given
T4 sequence: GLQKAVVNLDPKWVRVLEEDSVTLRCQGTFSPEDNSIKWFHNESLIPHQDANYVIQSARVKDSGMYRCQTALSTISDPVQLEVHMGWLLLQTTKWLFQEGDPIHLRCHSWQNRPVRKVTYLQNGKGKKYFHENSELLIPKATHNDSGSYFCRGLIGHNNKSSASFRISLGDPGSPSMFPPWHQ
The assay is described as above.

Assay [1] addresses T5, human FcRn (soluble human FcRn complexed with β2-microglobulin) (human, UniProt P61769 21-119, limits assumed).
T5 construct: also called hFcRn
Put plainly: SPR, antibody captured by Protein L, human FcRn as analyte, pH 7.0, 25 C.

Assay [2] concerns the target T6, human FcγRIIb (human, UniProt P31994 43-217, limits assumed).
T6 construct: also called hFcgRIIb; FcγIIB
T6 sequence: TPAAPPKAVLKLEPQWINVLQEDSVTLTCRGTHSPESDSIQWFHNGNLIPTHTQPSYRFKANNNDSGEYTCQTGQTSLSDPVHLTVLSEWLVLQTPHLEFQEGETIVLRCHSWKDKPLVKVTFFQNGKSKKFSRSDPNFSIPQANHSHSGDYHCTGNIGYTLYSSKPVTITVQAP
The assay can be described thus: SPR, antibody captured by Protein L, human FcγR as analyte, pH 7.4, 25 C.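 Note: biacore T100 or T200 with Protein L amine-coupled on a CM4 chip, FcγRs diluted in ACES saline with polysorbate 20, buffer-only injection as blank.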

The next assay concerns the target T7, human FcγRIa (human, UniProt P12314 16-292, limits assumed).
T7 construct: also called hFcgRIa; hFcgRI
Described as above.

The target in the next assay is T8, human FcγRIIa(H) (human, UniProt P12318 36-217).
T8 construct: also called hFcgRIIa(H); FcγRIIa type H
T8 sequence: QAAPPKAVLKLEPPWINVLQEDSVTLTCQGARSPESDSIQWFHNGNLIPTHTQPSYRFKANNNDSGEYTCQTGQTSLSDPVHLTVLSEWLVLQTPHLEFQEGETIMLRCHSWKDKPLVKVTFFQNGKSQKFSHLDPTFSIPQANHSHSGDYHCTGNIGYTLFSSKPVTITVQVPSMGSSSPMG
Described as above.

The target in a further assay is T9, human FcγRIIa(R) (human, UniProt P12318 36-217).
T9 construct: also called hFcgRIIa(R); FcγRIIa type R
T9 chain: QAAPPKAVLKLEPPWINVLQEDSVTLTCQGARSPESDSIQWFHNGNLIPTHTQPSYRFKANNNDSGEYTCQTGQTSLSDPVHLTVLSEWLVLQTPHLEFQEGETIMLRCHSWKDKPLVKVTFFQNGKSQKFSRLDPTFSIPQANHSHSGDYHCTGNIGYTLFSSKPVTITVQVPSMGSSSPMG
Described as above.

In another assay the target is T10, human FcγRIIIa(V) (human, UniProt P08637 17-208, limits assumed).
T10 construct: also called hFcgRIIIa(V); allotype V158
Described as above.

The target in assay [3] is T5, human FcRn (soluble human FcRn …). Put plainly: SPR, antibody captured by Protein L, human FcRn as analyte, pH 7.0, 25 C. This is another data set of the same source.
In assay [4] the target is T11, human FcγRIIb (human, UniProt P31994 43-217, limits assumed).
T11 construct: also called FcγIIB
T11 sequence: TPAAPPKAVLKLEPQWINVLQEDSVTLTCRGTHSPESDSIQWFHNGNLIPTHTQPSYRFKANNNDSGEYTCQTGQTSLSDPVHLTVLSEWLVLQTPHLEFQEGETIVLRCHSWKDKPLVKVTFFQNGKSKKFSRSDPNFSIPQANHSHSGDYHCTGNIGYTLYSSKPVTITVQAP
Put plainly: SPR (Biacore); ratio against IgG1.

Assay [5] deals with T11, human FcγRIIb. The assay can be described thus: SPR (Biacore); ratio against IgG1. The source holds these as a separate data set.
Assay [6] addresses T11, human FcγRIIb. Put plainly: SPR (Biacore), antibody captured, FcγR as analyte.
The target in assay [7] is T11, human FcγRIIb. The assay can be described thus: SPR (Biacore), antibody captured, FcγR as analyte. This is another data set of the same source.

Where two headings read alike, the source gives them in different places.

T5 sequence (chain, as listed by the source limits assumed, chain 1 of 2): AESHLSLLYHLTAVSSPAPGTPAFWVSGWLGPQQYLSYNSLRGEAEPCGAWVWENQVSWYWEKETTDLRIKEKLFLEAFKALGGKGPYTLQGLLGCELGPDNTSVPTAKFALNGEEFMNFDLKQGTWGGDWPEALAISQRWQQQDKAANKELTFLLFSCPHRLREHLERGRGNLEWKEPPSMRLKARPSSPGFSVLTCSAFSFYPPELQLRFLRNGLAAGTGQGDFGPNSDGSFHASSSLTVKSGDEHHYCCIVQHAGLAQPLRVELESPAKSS
T5 sequence (P61769 21-119 limits assumed, chain 2 of 2): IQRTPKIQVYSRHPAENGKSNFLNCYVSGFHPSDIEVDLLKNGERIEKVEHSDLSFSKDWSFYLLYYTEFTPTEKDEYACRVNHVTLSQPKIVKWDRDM
T10 sequence (P08637 other isoform, or with tags, fused parts or gaps limits assumed): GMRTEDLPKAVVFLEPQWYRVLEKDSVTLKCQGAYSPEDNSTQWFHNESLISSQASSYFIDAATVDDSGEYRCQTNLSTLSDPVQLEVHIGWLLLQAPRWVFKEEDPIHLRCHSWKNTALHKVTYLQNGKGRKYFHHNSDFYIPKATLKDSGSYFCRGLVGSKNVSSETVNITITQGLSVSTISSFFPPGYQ
T7 sequence (P12314 16-292 limits assumed): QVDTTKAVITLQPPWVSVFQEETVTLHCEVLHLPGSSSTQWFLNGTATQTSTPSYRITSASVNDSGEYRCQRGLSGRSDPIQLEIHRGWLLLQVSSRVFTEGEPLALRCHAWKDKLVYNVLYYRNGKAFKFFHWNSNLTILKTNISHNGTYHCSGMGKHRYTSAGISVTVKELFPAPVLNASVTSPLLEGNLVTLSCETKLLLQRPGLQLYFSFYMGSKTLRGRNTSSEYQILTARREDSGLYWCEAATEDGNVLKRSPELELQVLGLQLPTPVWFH

B1: antibody with VH3-IgG1-F1009 heavy chain and L(WT)-CK light chain (antibody)
heavy: QVQLQESGPGLVKPSETLSLTCAVSGHSISHDHAWSWVRQPPGEGLEWIGFISYSGITNYNPSLQGRVTISRDNSKNTLYLQMNSLRAEDTAVYYCARSLARTTAMDYWGEGTLVTVSSASTKGPSVFPLAPSSKSTSGGTAALGCLVKDYFPEPVTVSWNSGALTSGVHTFPAVLQSSGLYSLSSVVTVPSSSLGTQTYICNVNHKPSNTKVDKKVEPKSCDKTHTCPPCPAPELRGGPKVFLFPPKPKDVLYISRTPEVTCVVVDVSHEDPEVKFNWYVDGVEVHNAKTKPREEQYNSTYRVVSVLQPLHADWLNGKEYKCKVSNKALPAPIEKTISKAKGQPREPQVYTLPPSRDELTKNQVSLTCLVKGFYPSDIAVEWESNGQPENNYKTTPPVLDSDGSFFLYSKLTVDKSRWQQGNVFSCSVMHEALHYHVTQKSLSLSP
light: not shown
notes: L235R/S239K/T250V/M252Y/T307Q/V308P/Q311A/N434Y/Y436V; copies: 2 + 2
A word on the Kd: it is a measure of binding affinity in units of concentration. On to B1, for which the “BINDING AMOUNT (RU)” value with mouse FcγRI is 0.6 RU; in the assay with mouse FcγRIII it was -12.9 RU; with mouse FcγRIIb, -1.5 RU; with mouse FcγRIV, 7.2 RU; with human FcγRIIb [2], 0.16 RU; with human FcγRIa it was 0.31 RU. Besides, the entries for the “BINDING AMOUNT (RU)” value with human FcγRIIa(H), in the assay with human FcγRIIa(R) and with human FcγRIIIa(V) were -0.02 RU, -0.27 RU and 3.64 RU, respectively. The Kd in assay [1] and in assay [3] was 12 nM throughout.

B2: IgG1-v1 (antibody)
heavy: not shown
light: DIQMTQSPSSLSASVGDRVTITCRASQDISSYLNWYQQKPGKAPKLLIYYTSRLHSGVPSRFSGSGSGTDFTFTISSLQPEDIATYYCQQGNTLPYTFGQGTKVEIK
notes: IL6R-G1d with P238D (EU numbering); also called IL6R-G1d-v1
Turning to B2, the “relative KD for FcγRIIb (KD for IgG1/KD for each variant)” value (from here on “relative KD for FcγRIIb”) with human FcγRIIb [4] and with human FcγRIIb [5] was 4.8 in each case. In addition, the Kd with human FcγRIIb [6] and in the assay with human FcγRIIb [7] was 1100 nM in each case.

B3: IgG1-v3 (antibody)
heavy: not shown
light: DIQMTQSPSSLSASVGDRVTITCRASQDISSYLNWYQQKPGKAPKLLIYYTSRLHSGVPSRFSGSGSGTDFTFTISSLQPEDIATYYCQQGNTLPYTFGQGTKVEIK
notes: IL6R-G1d with S267E/L328F (EU numbering); also called S267E/L328F
With B3, in the assay with human FcγRIIb [4], the “relative KD for FcγRIIb” value is 408. In addition, the Kd with human FcγRIIb [6] was determined as 13 nM.

B4: IgG1-v5 (antibody)
heavy: QVQLQESGPGLVKPSETLSLTCAVSGHSISHDHAWSWVRQPPGEGLEWIGFISYSGITNYNPSLQGRVTISRDNSKNTLYLQMNSLRAEDTAVYYCARSLARTTAMDYWGEGTLVTVSSASTKGPSVFPLAPSSKSTSGGTAALGCLVKDYFPEPVTVSWNSGALTSGVHTFPAVLQSSGLYSLSSVVTVPSSSLGTQTYICNVNHKPSNTKVDKKVEPKSCDKTHTCPPCPAPELLGGDSVFLFPPKPKDTLMISRTPEVTCVVVDVEHEDPEVKFNWYVDGVEVHNAKTKPREEQYNSTYRVVSVLTVLHQDWLNGKEYKCKVSNKAFPAPIEKTISKAKGQPREPQVYTLPPSRDELTKNQVSLTCLVKGFYPSDIAVEWESNGQPENNYKTTPPVLDSDGSFFLYSKLTVDKSRWQQGNVFSCSVMHEALHNHYTQKSLSLSP
light: DIQMTQSPSSLSASVGDRVTITCRASQDISSYLNWYQQKPGKAPKLLIYYTSRLHSGVPSRFSGSGSGTDFTFTISSLQPEDIATYYCQQGNTLPYTFGQGTKVEIK
notes: IL6R-G1d with P238D/S267E/L328F (EU numbering); The L chain is not restated for v5; also called IL6R-G1d-v5; P238D/S267E/L328F
Consider B4, for which the “relative KD for FcγRIIb” value with human FcγRIIb [4] was 12. The Kd with human FcγRIIb [6] was 450 nM.

B5: IgG1-v4 (antibody)
heavy: not shown
light: DIQMTQSPSSLSASVGDRVTITCRASQDISSYLNWYQQKPGKAPKLLIYYTSRLHSGVPSRFSGSGSGTDFTFTISSLQPEDIATYYCQQGNTLPYTFGQGTKVEIK
notes: IL6R-G1d with P238D/L328E (EU numbering); also called IL6R-G1d-v4; P238D/L328E
B5: the “relative KD for FcγRIIb” value with human FcγRIIb [5] was found to be 0.47. This molecule showed a Kd with human FcγRIIb [7] of 11000 nM.

B6: IgG1-v2 (antibody)
heavy: not shown
light: DIQMTQSPSSLSASVGDRVTITCRASQDISSYLNWYQQKPGKAPKLLIYYTSRLHSGVPSRFSGSGSGTDFTFTISSLQPEDIATYYCQQGNTLPYTFGQGTKVEIK
notes: IL6R-G1d with L328E (EU numbering); also called L328E
Regarding B6, in the assay with human FcγRIIb [5], the “relative KD for FcγRIIb” value is 2.3. The molecule also came in with a Kd with human FcγRIIb [7] of 2300 nM.
